In article PMC5850324, “Interactions between the Hepatitis C Virus Nonstructural 2 Protein and Host Adaptor Proteins 1 and 4 Orchestrate Virus Release” (mBio, 2018):

B1: GLuc2-NS2 (hepatitis C virus nonstructural 2 protein, wild type) [hepatitis C virus (J6/JFH genome)] / GLuc1-tagged μ subunit of the AP-1A complex [not stated] (parent)
chain 1: YDASVHGQIGAALLVLITLFTLTPGYKTLLSRFLWWLCYLLTLAEAMVQEWAPPMQVRGGRDGIIWAVAIFCPGVVFDITKWLLAVLGPAYLLKGALTRVPYFVRAHALLRMCTMVRHLAGGRYVQMVLLALGRWTGTYIYDHLTPMSDWAANGLRDLAVAVEPIIFSPMEKKVIVWGAETAACGDILHGLPVSARLGREVLLGPADGYTSKGWSLL
chain 2: MSASAVYVLDLKGKVLICRNYRGDVDMSEVEHFMPILMEKEEEGMLSPILAHGGVRFMWIKHNNLYLVATSKKNACVSLVFSFLYKVVQVFSEYFKELEEESIRDNFVIIYELLDELMDFGYPQTTDSKILQEYITQEGHKLETGAPRPPATVTNAVSWRSEGIKYRKNEVFLDVIESVNLLVSANGNVLRSEIVGSIKMRVFLSGMPELRLGLNDKVLFDNTGRGKSKSVELEDVKFHQCVRLSRFENDRTISFIPPDGEFELMSYRLNTHVKPLIWIESVIEKHSHSRIEYMIKAKSQFKRRSTANNVEIHIPVPNDADSPKFKTTVGSVKWVPENSEIVWSIKSFPGGKEYLMRAHFGLPSVEAEDKEGKPPISVKFEIPYFTTSGIQVRYLKIIEKSGYQALPWVRYITQNGDYQLRTQ
B2: GLuc2-NS2 (hepatitis C virus nonstructural 2 protein, wild type) [hepatitis C virus (J6/JFH genome)] / GLuc1-tagged μ subunit of the AP-1B complex [not stated] (parent)
chain 1: B1 chain 1
chain 2: MSASAVFILDVKGKPLISRNYKGDVAMSKIEHFMPLLVQREEEGALAPLLSHGQVHFLWIKHSNLYLVATTSKNANASLVYSFLYKTIEVFCEYFKELEEESIRDNFVIVYELLDELMDFGFPQTTDSKILQEYITQQSNKLETGKSRVPPTVTNAVSWRSEGIKYKKNEVFIDVIESVNLLVNANGSVLLSEIVGTIKLKVFLSGMPELRLGLNDRVLFELTGRSKNKSVELEDVKFHQCVRLSRFDNDRTISFIPPDGDFELMSYRLSTQVKPLIWIESVIEKFSHSRVEIMVKAKGQFKKQSVANGVEISVPVPSDADSPRFKTSVGSAKYVPERNVVIWSIKSFPGGKEYLMRAHFGLPSVEKEEVEGRPPIGVKFEIPYFTVSGIQVRYMKIIEKSGYQALPWVRYITQSGDYQLRTS

Variants of: B1
Assay: PCA (protein-fragment complementation assay)
Conditions: with GLuc1-tagged μ subunit of the AP-1A complex; parent: 1; read off a plot

Question: chain 1 L202A L217A was tested. Which ratio to parent did it give?
Answer: The ratio to parent was 0.38.

Question: For chain 1 D207A, which ratio to parent is on record?
Answer: The ratio to parent was 0.74.

Question: For chain 1 E200A, which ratio to parent is on record?
Answer: The ratio to parent was 1.

Question: How did the ratio to parent turn out when chain 1 L216A was run?
Answer: Its ratio to parent is 0.56.

Question: For chain 1 L203A, which ratio to parent is on record?
Answer: The ratio to parent was 0.67.

Question: chain 1 L217A was tested. Which ratio to parent did it give?
Answer: Its ratio to parent is 0.68.

Question: How did the ratio to parent turn out when chain 1 L202A was run?
Answer: Its ratio to parent is 0.71.

Question: How did the ratio to parent turn out when chain 1 L202A L203A L216A L217A was run?
Answer: Its ratio to parent is 0.33.

Variants of: B2
Assay: PCA (protein-fragment complementation assay)
Conditions: with GLuc1-tagged μ subunit of the AP-1B complex; parent: 1; read off a plot

Question: Which ratio to parent does the source give for chain 1 L202A L203A L216A L217A here?
Answer: The ratio to parent was 0.47.

Question: Which ratio to parent does the source give for chain 1 L202A here?
Answer: Its ratio to parent is 0.8.

Question: chain 1 L203A was tested. Which ratio to parent did it give?
Answer: The ratio to parent was 0.67.

Question: For chain 1 L216A, which ratio to parent is on record?
Answer: The ratio to parent was 0.77.

Question: How did the ratio to parent turn out when chain 1 L202A L217A was run?
Answer: The ratio to parent was 0.55.

Question: With chain 1 L217A as the variant, how does the ratio to parent read?
Answer: The ratio to parent was 0.76.

Question: How did the ratio to parent turn out when chain 1 D207A was run?
Answer: The ratio to parent was 0.79.

Question: How did the ratio to parent turn out when chain 1 E200A was run?
Answer: Its ratio to parent is 0.97.
